Target: Biotinylated peptide BubR1 WT (Q293 to R302) (human)
Assay: pull-down

fold of protein bound against the W295A peptide: 5 fold
Substance: GST-tagged BubR1 TPR (wild type) (from UniProt O60566 1-230) (domain or fragment)
